In PMC5079630, “STAT2 Is a Pervasive Cytokine Regulator due to Its Inhibition of STAT1 in Multiple Signaling Pathways” (PLoS Biology, 2016):
Values belong to the binder of their own block, whether it stands above or below them.

Molecular target: T1, STAT1 N domain (aminoterminal domain), recombinant
T1 chain: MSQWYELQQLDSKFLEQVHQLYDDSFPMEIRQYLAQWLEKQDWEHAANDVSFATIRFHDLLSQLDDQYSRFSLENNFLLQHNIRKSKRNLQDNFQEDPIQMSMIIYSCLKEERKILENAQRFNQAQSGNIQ
Assay: AUC; sedimentation equilibrium of purified recombinant N domains, homo- and heterotypic associations (dimer to monomers); STAT1 N domain and mEGFP-tagged STAT2 N domain at final equimolar concentrations of 2.5, 10, and 40 μM
Settings: both partners purified

fold stronger than STAT1 N domain homodimers: ≥ 1000 fold
B1: STAT2 N domain (aminoterminal domain), recombinant, mEGFP-tagged (domain or fragment)
chain: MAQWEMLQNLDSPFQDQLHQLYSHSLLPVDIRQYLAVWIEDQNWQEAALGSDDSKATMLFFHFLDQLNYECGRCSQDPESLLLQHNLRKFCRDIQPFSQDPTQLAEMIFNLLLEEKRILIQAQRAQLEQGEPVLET
modifications: limits not given; N domain taken up to the start of the core region (P52630 region from 138), homologous to STAT1 1-131; mEGFP and Strep-tag omitted / limits not printed (S1 Text/ref. 22); N domain

fold stronger than STAT2 N domain homodimers: ~50 fold
B2: STAT1 N domain (aminoterminal domain), recombinant (domain or fragment)
chain: T1 chain
modifications: limits not printed (S1 Text/ref. 22); N domain taken up to the start of the conventional STAT1 core fragment (132-713); Strep-tag omitted / limits not printed (S1 Text/ref. 22); N domain taken up to …
